Measured values: patent US20210393690A1 (JUNO THERAPEUTICS, published 2021)
Like-named read-outs stand apart in the source and are kept apart here. Blank lines part the entries; values can stand above or below the binder they belong to.

Legend:
[1] = molecular target: T1, human BCMA amino acid residues 1-54 (linear and conformational CLIPS peptide libraries) (human); assay: CLIPS peptide array ELISA
T1 construct: Not one polypeptide in the assay: arrays of linear peptides and structural mimetics that cover residues 1-54
T1 chain: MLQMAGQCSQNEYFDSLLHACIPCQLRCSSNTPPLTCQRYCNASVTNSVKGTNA
Protocol: (§1) Epitopes recognized, e.g., specifically bound to, by exemplary anti-BCMA scFv clones (BCMA-1, BCMA-5, BCMA-9, BCMA-23, BCMA-25, BCMA-26, BCMA-52 and BCMA-55 anti-BCMA scFvs), were assessed using full discontinuous epitope mapping by Chemical Linkage of Peptides onto Scaffolds (CLIPS; Pepscan Presto BV, Lelystad, The Netherlands; see, e.g., Timmerman et al., (2007) J. Mol. Recognit. 20: 283-329). Mapping was carried out using anti-BCMA scFv clones, such as those fused with mouse Fc (scFv-mFc).
(§2) Linear and conformational peptide libraries of amino acid residues 1-54 of human BCMA (set forth as amino acid residues 1-54 of SEQ ID NO:164) were generated based on a combinatorial matrix design. Linear peptides and structural mimetics including single loop, α-helix, β-turn, combinatorial and linear disulfide bridge mimics, and discontinuous epitope mimics were used, along with positive and negative control peptides, on an amino-functionalized solid support.
(§3) Affinities for binding to the peptides in the epitope library were determined using ELISA. The peptide arrays were incubated with a solution containing the scFv overnight at 4° C. Affinity information was used in iterative screens to define the sequence and conformation of epitopes. Heat maps of affinity information for two or more loops were generated.

[2] = molecular target: T2, recombinant human BCMA-hFc (soluble human BCMA fused at its C-terminus to an Fc region of IgG) (human, UniProt Q02223 1-54, limits assumed, biotinylated in the KinExA experiment of p-1044 (site not stated)); assay: Biacore-based assay; scFv-Fc and recombinant human BCMA fusion protein; scFv-Fc fusion, Biacore-based assay
T2 construct: also called rhBCMA hFc; BCMA-Fc; not shown: Fc region of IgG (hFc)
T2 sequence (looked up): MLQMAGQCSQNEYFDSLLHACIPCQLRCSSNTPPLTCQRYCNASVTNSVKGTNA

[3] = molecular target: T3, human BCMA peptide 30SNTPPLTCQR39 (human); assay: CLIPS peptide array ELISA
T3 construct: Peptide of the CLIPS array; could be recognized in a linear form
T3 peptide: SNTPPLTCQR
Protocol: as §1, §2, §3

[4] = molecular target: T2, recombinant human BCMA-hFc (soluble …); assay: kinetics exclusion assay; CAR expressed in a Jurkat T cell line, soluble rhBCMA hFc; CAR on Jurkat cells, kinetics exclusion assay
[5] = molecular target: T2, recombinant human BCMA-hFc (soluble …); assay: cell-based or functional assay
[6] = molecular target: T2, recombinant human BCMA-hFc (soluble …); assay: KinExA kinetic exclusion analysis; serially diluted CAR-expressing Jurkat cells equilibrated with 20 nM or 1 nM biotinylated rhBCMA hFc
Protocol: In a further experiment, Jurkat cells were transduced with a polynucleotide encoding a CAR with a BCMA-55-derived scFv binding domain and were cultured to a density of ˜2×10⁶. The cells were harvested and spun at 1500 g for 15 minutes at 4° C. The cell pellet was washed and cells were resuspended and serially diluted in 20 nM or 1 nM biotinylated rhBCMA hFc (also referred to in this assay as the constant binding partner (CBP). After equilibration, cells were spun down and supernatants were harvested for KinExa kinetic exclusion analysis. Briefly, supernatants from equilibrated BCMA-55-LS CAR O/SSE-expressing Jurkat cells containing rhBCMA hFc were flowed over a streptavidin bead flow cell to capture free biotinylated rhBCMA hFc. The rhBCMA was then detected using a secondary anti-hBCMA antibody that was fluorescently labelled. The […] of the detected rhBCMA hFc was recorded for each sample, and plotted against the number of cells in each dilution (Darling (2004) Assay Drug. Dev., 2:647-657).

[7] = molecular target: T4, cynoBCMA coated on 96-well flat-bottom plates (cynomolgus monkey); assay: cell-based or functional assay
[8] = molecular target: T4, cynoBCMA coated on 96-well flat-bottom …; assay: cell-based or functional assay; remark: listed apart in the source

T4 sequence (chain, as listed by the source): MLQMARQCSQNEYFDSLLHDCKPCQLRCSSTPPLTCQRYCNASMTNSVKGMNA

B1: BCMA-55-scFv-mFc (Fc fusion, not shown: a dimerising Fc or GST)
chain: QSALTQPASVSASPGQSIAISCTGTSSDVGWYQQHPGKAPKLMIYEDSKRPSGVSNRFSGSKSGNTASLTISGLQAEDEADYYCSSNTRSSTLVFGGGTKLTVLGSRGGGGSGGGGSGGGGSLEMAEVQLVQSGAEMKKPGASLKLSCKASGYTFIDYYVYWMRQAPGQGLESMGWINPNSGGTNYAQKFQGRVTMTRDTSISTAYMELSRLRSDDTAMYYCARSQRDGYMDYWGQGTLVTVSS
binding result [1]: binds

B2: BCMA-55 scFv-Fc fusion protein (Fc fusion)
chain: QSALTQPASVSASPGQSIAISCTGTSSDVGWYQQHPGKAPKLMIYEDSKRPSGVSNRFSGSKSGNTASLTISGLQAEDEADYYCSSNTRSSTLVFGGGTKLTVLGSRGGGGSGGGGSGGGGSLEMAEVQLVQSGAEMKKPGASLKLSCKASGYTFIDYYVYWMRQAPGQGLESMGWINPNSGGTNYAQKFQGRVTMTRDTSISTAYMELSRLRSDDTAMYYCARSQRDGYMDYWGQGTLVTVSS
notes: Fc fusion protein containing the scFv portion of the BCMA-55 CAR; also called BCMA-55-Fc; not shown: Fc region
Kd [2]: ~10 nM

B3: BCMA-23 anti-BCMA scFv (scFv)
scFv: EVQLVESGGGLVKPGGSLRLSCAASGFTFSDYYMSWIRQAPGKGLEWVSYISSSGSTIYYADSVKGRFTISRDNAKNSLYLQMNSLRAEDTAVYYCAKVDGDYTEDYWGQGTLVTVSSGGGGSGGGGSGGGGSQSALTQPASVSGSPGQSITISCTGSSSDVGKYNLVSWYQQPPGKAPKLIIYDVNKRPSGVSNRFSGSKSGNTATLTISGLQGDDEADYYCSSYGGSRSYVFGTGTKVTVL
binding result [3]: binds

B4: BCMA-55-LS-O/SSE CAR (other)
chain: QSALTQPASVSASPGQSIAISCTGTSSDVGWYQQHPGKAPKLMIYEDSKRPSGVSNRFSGSKSGNTASLTISGLQAEDEADYYCSSNTRSSTLVFGGGTKLTVLGSRGGGGSGGGGSGGGGSLEMAEVQLVQSGAEMKKPGASLKLSCKASGYTFIDYYVYWMRQAPGQGLESMGWINPNSGGTNYAQKFQGRVTMTRDTSISTAYMELSRLRSDDTAMYYCARSQRDGYMDYWGQGTLVTVSSESKYGPPCPPCPAPPVAGPSVFLFPPKPKDTLMISRTPEVTCVVVDVSQEDPEVQFNWYVDGVEVHNAKTKPREEQFQSTYRVVSVLTVLHQDWLNGKEYKCKVSNKGLPSSIEKTISKAKGQPREPQVYTLPPSQEEMTKNQVSLTCLVKGFYPSDIAVEWESNGQPENNYKTTPPVLDSDGSFFLYSRLTVDKSRWQEGNVFSCSVMHEALHNHYTQKSLSLSLGKMFWVLVVVGGVLACYSLLVTVAFIIFWVKRGRKKLLYIFKQPFMRPVQTTQEEDGCSCRFPEEEEGGCELRVKFSRSADAPAYQQGQNQLYNELNLGRREEYDVLDKRRGRDPEMGGKPRRKNPQEGLYNELQKDKMAEAYSEIGMKGERRRGKGHDGLYQGLSTATKDTYDALHMQALPPR
notes: Chimeric antigen receptor on the surface of Jurkat cells, Jurkat Nur77 reporter cells or primary T cells; also called BCMA-55-LS CAR; BCMA-55-L CAR
Kd [4]: ~1 nM
EC50 (read off the curve) [5]: ~0.2 µg/mL
Kd [6]: ~1.46 nM
EC50 (read off the curve) [7]: ~0.9 µg/mL
EC50 (read off the curve) [8]: ~1 µg/mL

B5: BCMA-26 anti-BCMA scFv (scFv)
scFv: EVQLVESGGGLVKPGGSLRLSCAASGFTFSDYYMSWIRQAPGKGLEWVSYISSSGSTIYYADSVKGRFTISRDNAKNSLYLQMNSLRAEDTAVYYCAKVDGPPSFDIWGQGTMVTVSSGGGGSGGGGSGGGGSSYVLTQPPSVSVAPGQTARITCGANNIGSKSVHWYQQKPGQAPMLVVYDDDDRPSGIPERFSGSNSGNTATLTISGVEAGDEADYFCHLWDRSRDHYVFGTGTKLTVL
binding result [1]: binds

Second part, the binder after the results:

binding result [1]: binds
B6: BCMA-52-scFv-mFc (Fc fusion, not shown: a dimerising Fc or GST)
chain: SYELTQPPSASGTPGQRVTMSCSGTSSNIGSHSVNWYQQLPGTAPKLLIYTNNQRPSGVPDRFSGSKSGTSASLAISGLQSEDEADYYCAAWDGSLNGLVFGGGTKLTVLGSRGGGGSGGGGSGGGGSLEMAEVQLVQSGAEVKKPGESLKISCKGSGYSFTSYWIGWVRQMPGKGLEWMGIIYPGDSDTRYSPSFQGHVTISADKSISTAYLQWSSLKASDTAMYYCARYSGSFDNWGQGTLVTVSS

binding result [3]: binds
B7: BCMA-25 anti-BCMA scFv (scFv)
scFv: EVQLVQSGGGLVQPGRSLRLSCTASGFTFGDYAMSWFRQAPGKGLEWVGFIRSKAYGGTTEYAASVKGRFTISRDDSKSIAYLQMNSLKTEDTAVYYCAAWSAPTDYWGQGTLVTVSSGGGGSGGGGSGGGGSDIQMTQSPAFLSASVGDRVTVTCRASQGISNYLAWYQQKPGNAPRLLIYSASTLQSGVPSRFRGTGYGTEFSLTIDSLQPEDFATYYCQQSYTSRQTFGPGTRLDIK
